Results on one substance are retold here after PMC5674894.

Read-outs that look alike come from different tables or passages of the source.

Common to all, as to test: FRET or BRET
On the technique in general: BRET reads energy transfer from a luciferase to a nearby fluorophore.

Experiment [1] addresses RNC_(RodZ): ribosome-nascent chain complex displaying the N-terminal 180 amino acids of RodZ (UniProt P27434).
The target is the same in experiment [2]. The source holds these as a separate data set.
For experiment [3], the target named is RNC_(RodZ160): ribosome-nascent chain complex with a RodZ nascent chain of 160 amino acids (UniProt P27434).
Experiment [4] addresses RNC_(RodZ) bearing the mutant TMD with two arginines introduced (UniProt P27434).
For experiment [5], the target named is RNC_(RodZ): ribosome-nascent chain complex displaying the N-terminal 180 amino acids of RodZ (UniProt P27434). The source holds these as a separate data set.

Broadly, the Kd is the free concentration of one partner at which half of the binding sites on the other are occupied at equilibrium, for simple one-to-one binding. Read a high Kd as lower affinity.

Regarding “SecA(C98S/S12C) labeled at residue 12 with BODIPY-FL (from UniProt P10408 1-901) (enzyme)”, the Kd amounted to 55 nM in experiment [1]; 19 nM in experiment [2]; 0.94 nM in experiment [3]; 25.9 nM in experiment [4]; 1 nM in experiment [5]. In experiment [5], this substance came in with a reduction in Cm donor fluorescence (FRET) of 44%.
